Patent publication US8624002B2, “Prostaglandin E2 binding proteins and uses thereof” (AbbVie, Inc., priority 2008, dated 2014)

Assays:
[1] = test system: carrageenan-induced paw edema; assay: Carrageenan-induced footpad edema model; assay type: in vivo, C57.BL/6 mice
Procedure: Carrageenan-Induced Footpad Edema is an acute rodent model of innate immune function. The in vivo efficacy of mouse anti-PGE2 antibody 2B5-8.0 is assessed in a carragenan-induced paw edema model. The induction of paw inflammation with carrageenan is performed similarly as previously described (Joseph P. Portanova, et al. J. Exp. Med. 184: 883-891 (1996)). Intradermal (ID) injection of an inflammatory agent causes a rapid influx of neutrophils and fluid edema which peaks at approximately 4 hours, followed by an influx of macrophages and monocytes which peaks at approximately 48 hours. C57.BL/6 mice (8-10-week-old, Jackson Laboratories, Bar Harbor, Me.) were injected ID in the rear footpad with 30 μL of either PBS (left) or λ-carrageenen (Sigma Aldrich, St. Louis, Mo.) in PBS (right) at a concentration of 5.0 mg/mL (150 μg/mouse). Rear footpad thickness was measured by Dyer spring caliper model #310-119 at baseline (time=0), and 4 hours post carrageenan challenge. Significant difference for paw thickness was determined by comparing mean paw swelling for each treatment group to vehicle in a Student's two-tailed t-test. Mice were given a dose titration of an anti-PGE2 antibody (2B5-8.0) intraperitonially (IP) 18 hours prior to carrageenan challenge, or Indomethacin, PO 2 hours prior to challenge. The endpoint measured was the difference in paw swelling (edema) between right and left paws 4 hours after treatment.

[2] = Pharmacokinetics of hu2B5.7 and hu2B5.4 in Sprague-Dawley rats; assay type: in vivo; conditions: male Sprague-Dawley rats, IV 4 mg/kg
Procedure: Pharmacokinetic parameters were calculated by non-compartmental analysis using WinNonlin.
MSD streptavidin plates (Meso Scale Discovery) were washed with phosphate buffered saline containing 0.05% Tween-20 (diluted from 10×PBS, Abbott Bioresearch Center, Media Room, Worcester, Mass. and Tween-20, Sigma, St. Louis, Mo.). Plates were blocked with 250 μL/well blocking solution (MSD Block, Meso Scale Discovery, diluted to 3% final concentration in PBS) for 1 hour, covered, with shaking (600 rpm) at room temperature. After washing, 70 μL of biotinylated PGE2 (Prostoglandin E2-biotinamide, Cayman Chemical, Ann Arbor, Mich., cat# 10006987, lot# 190831-191028; 0.01 ug/mL in assay buffer) was added to each well. The plates were covered and incubated with shaking (600 rpm) for 1 hour at room temperature.
Prior to analysis, rat serum samples were thawed on ice, mixed gently, and centrifuged at 14,000 rpm for 3 minutes at 4° C. in an eppendorf centrifuge. Standard curve and control samples were prepared in rat serum. Tecan Evo automated liquid handling station was used to dilute standard curve, high, medium, and low controls, and serum samples in assay buffer, keeping 1% final serum concentration constant. MSD plates were washed again and study samples, standard curve samples and blanks, as well as high, medium, and low controls were added (70 μL/well). The plates were covered, and incubated for 1 hour with shaking (600 rpm) at room temperature.
After incubation, the MSD plates were washed, and 70 μL sulfo-tagged goat anti-human IgG (Meso Scale Discovery; diluted to 1 ug/mL in assay buffer) was added to each well. The MSD plates were covered, and incubated with shaking (600 rpm) for 1 hour at room temperature, then the plates were washed and developed with 2× Read Buffer (Meso Scale Discovery). Chemilumeniscence was measured within ten minutes on the MSD Sector Imager 6000.
Standard curves were analyzed using four-parameter logistic fit and sample concentrations were calculated by XLfit4 software version 2.2.1 Build 16, ([…].). Pharmacokinetic parameters were calculated for each animal using Winonlin software version 5.0.1 (Pharsight Corporation, Mountain View, Calif.) by noncompartmental analysis.
Surgically altered jugular vein cannulated, JVC) male Sprague-Dawley Rats (approximately seven weeks old, weighing 240-390 grams) were purchased from Charles River Laboratories (Wilmington, Mass.). The animals were housed in rooms maintained at constant temperature and humidity under a 12 hour light/dark cycle, fed with normal rodent chow and were allowed food and water ad libitum. Hydration and clinical conditions of the animals were monitored daily.
0.2 mL blood samples were collected from the rats at various timepoints, allowed to clot for 30 minutes at room temperature, centrifuged for 3 minutes at 13,200 rpm, the serum transferred to eppendorf tubes and stored frozen at −80° C.

Molecule | Δ Paw Swelling (mm) ([1]; 10 mg/kg, i.p., 18 hours prior to carrageenan, 4 hours post challenge) | % Inhibition ([1]; 10 mg/kg, i.p., paw swelling 4 hours post challenge) [%] | maximal inhibition of paw swelling ([1]; at 10 mg/kg) | AUC0-∞ [2] [mg·h/mL] | CL [2] [mL/h/kg] | MRT [2] [days] | T½ [2] [days] | Vss [2] [mL/kg] | Vz [2] [mL/kg]
2B5-8.0: recombinant anti-PGE2 antibody from solved 2B5 sequence; VH SEQ ID NO 42, VL SEQ ID NO 43 (antibody, V domains shown) VH: QVQLQQSGPELVRPGSSVKISCKASGYTFTKYWLGWVKQRPGHGLEWIGDIYPGYDYTHYNEKFKDKATLTVDTSSSTAYMQLSSLTSEDSAIYYCARSDGSSTYWGQGTLVTVSA VL: DVLMTQTPLSLPVSLGDQASISCTSSQNIVHSNGNTYLEWYLQRPGQSPKLLIYKVSNRFSGVPDRFSGSGSGTVFTLKISRVEAEDLGVYYCFQVSHVPYTFGGGTKLEIKR | 0.529 ± 0.04 | 38 ± 4.6 | 40-50% | – | – | – | – | – | –
Hu2B5.4: humanized 2B5-8.0; VH SEQ ID NO 66, VL SEQ ID NO 67 (antibody, V domains shown) VH: EVQLVQSGAEVKKPGASVKVSCKASGYTFTKYWLGWVRQAPGQGLEWIGDIYPGYDYTHYNEKFKDRATLTVDTSTSTAYMELSSLRSDDTAVYYCARSDGSSTYWGQGTLVTVSS VL: DVLMTQTPLSLPVTPGEPASISCTSSQNIVHSNGNTYLEWYLQKPGQSPQLLIYKVSNRFSGVPDRFSGSGSGTDFTLKISRVEAEDVGVYYCFQVSHVPYTFGGGTKVEIKR | – | – | – | 11.8 ± 2.0 | 0.35 ± 0.07 | 18.0 ± 6.0 | 12.4 | 145 ± 31.8 | 143 ± 40.2
